According to patent US20260015426A1 (23ANDME, published 2026):
Where a chain is given by its changes, count along the chain named. In names and notes the source's numbering stands.

T1: hu-M-IL1RAP construct, positions S21-T367 (extracellular domain of the membrane form of human IL1RAP) (human, UniProt Q9NPH3 21-367)
T1 construct: Biotinylated when captured on the Biacore chip
T1 sequence: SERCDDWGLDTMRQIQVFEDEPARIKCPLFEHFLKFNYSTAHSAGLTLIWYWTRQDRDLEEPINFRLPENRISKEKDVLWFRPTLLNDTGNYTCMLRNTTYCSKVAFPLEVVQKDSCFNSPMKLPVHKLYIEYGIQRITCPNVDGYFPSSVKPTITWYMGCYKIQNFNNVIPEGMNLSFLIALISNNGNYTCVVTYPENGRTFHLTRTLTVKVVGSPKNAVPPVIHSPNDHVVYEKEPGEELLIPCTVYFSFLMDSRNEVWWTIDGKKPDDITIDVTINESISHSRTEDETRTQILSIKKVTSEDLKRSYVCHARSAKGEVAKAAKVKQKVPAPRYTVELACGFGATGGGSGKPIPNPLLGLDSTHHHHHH

T2: human IL1RAP (hu-IL1RAP) on human cells (human, UniProt Q9NPH3 21-570)
T2 sequence: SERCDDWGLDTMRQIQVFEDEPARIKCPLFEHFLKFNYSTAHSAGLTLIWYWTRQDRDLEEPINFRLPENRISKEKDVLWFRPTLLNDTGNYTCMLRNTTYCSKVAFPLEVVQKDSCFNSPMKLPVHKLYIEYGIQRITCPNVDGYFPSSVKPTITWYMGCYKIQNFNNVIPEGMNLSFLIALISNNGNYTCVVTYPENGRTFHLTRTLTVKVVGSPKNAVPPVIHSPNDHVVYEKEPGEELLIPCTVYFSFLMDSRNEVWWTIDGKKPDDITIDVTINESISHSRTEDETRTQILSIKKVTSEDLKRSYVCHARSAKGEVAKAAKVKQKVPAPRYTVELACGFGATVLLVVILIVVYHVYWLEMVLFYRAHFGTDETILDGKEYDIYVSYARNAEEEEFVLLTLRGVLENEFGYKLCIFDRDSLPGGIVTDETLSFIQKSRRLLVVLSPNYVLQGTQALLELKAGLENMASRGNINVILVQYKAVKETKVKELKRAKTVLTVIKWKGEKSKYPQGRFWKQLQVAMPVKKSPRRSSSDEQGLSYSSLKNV

B1: H1 Fab (VH R96A) (Fab, V domains shown)
VH: EVQLVESGGGLVQPGGSLRLSCAASGFTFSNYAMSWVRQAPGKGLEWVATVTEGGDYNYYLDDVKGRFTISRDNAKNSLYLQMNSLRAEDTAVYYCARDAWPYFFDYWGQGTLVTVSS
VL: DIQMTQSPSSLSASVGDRVTITCRASENIYSNLAWYQQKPGKSPKLLVYGAKNLADGVPSRFSGSGSGTDYTLTISSLQPEDFATYYCQHFWTTPRTFGGGTKVEIK
notes: Fab with 8xHis tag
B2: K15 Fab (VL T94V) (Fab, V domains shown)
VH: B1 VH with A100R
VL: B1 VL with T94V
notes: Fab with 8xHis tag
B3: H4 Fab (VH F29Q) (Fab, V domains shown)
VH: B1 VH with F29Q, A100R
VL: B1 VL
notes: Fab with 8xHis tag
B4: K7 Fab (VL A51R) (Fab, V domains shown)
VH: B1 VH with A100R
VL: B1 VL with A51R
notes: Fab with 8xHis tag
B5: K14 Fab (VL T94I) (Fab, V domains shown)
VH: B1 VH with A100R
VL: B1 VL with T94I
notes: Fab with 8xHis tag
B6: K12 Fab (VL W92I) (Fab, V domains shown)
VH: B1 VH with A100R
VL: B1 VL with W92I
notes: Fab with 8xHis tag
B7: K8 Fab (VL A51L) (Fab, V domains shown)
VH: B1 VH with A100R
VL: B1 VL with A51L
notes: Fab with 8xHis tag
B8: H6 Fab (VH R96Q) (Fab, V domains shown)
VH: B1 VH with A100Q
VL: B1 VL
notes: Fab with 8xHis tag
B9: K10 Fab (VL A51Y) (Fab, V domains shown)
VH: B1 VH with A100R
VL: B1 VL with A51Y
notes: Fab with 8xHis tag
B10: K9 Fab (VL A51D) (Fab, V domains shown)
VH: B1 VH with A100R
VL: B1 VL with A51D
notes: Fab with 8xHis tag
B11: H3 Fab (VH V51S) (Fab, V domains shown)
VH: B1 VH with V51S, A100R
VL: B1 VL
notes: Fab with 8xHis tag
B12: H2 Fab (VH R96D) (Fab, V domains shown)
VH: B1 VH with A100D
VL: B1 VL
notes: Fab with 8xHis tag

Biological target: T1, hu-M-IL1RAP construct, positions …
Experiment: SPR, Fab analyte, 25 C
Method: (§1) Surface plasmon resonance (SPR) analysis was used to determine binding affinity for hu-M-IL1RAP of the purified Fabs containing the selected single, double, and triple mutations in either the VL or VH regions using a BIACORE™ 8K instrument. […] For kinetics measurements, 5 nM biotinylated hu-M-IL1RAP was captured at 10 μL/min to achieve ˜50 response units in the second flow cell (FC2). FC1 was kept as a reference. […] The sensorgrams were recorded and subjected to reference and buffer subtraction before data analysis with the BIACORE® 8K Evaluation Software (version 1.1.1.7442). Association rates (kₒₙ) and dissociation rates (koff) were calculated using a simple one-to-one Langmuir binding model. The equilibrium dissociation constant (KD) was calculated as the ratio of koff/kₒₙ.

Row | Binder | Kd [nM] | koff [s⁻¹] | kon [M⁻¹ s⁻¹]
1 | B1 | 0.125 | 0.000218 | 1.75e+06
2 | B2 | 0.12 | 0.00068 | 5.67e+06
3 | B3 | 0.0421 | 0.000231 | 5.49e+06
4 | B4 | 0.0119 | 6.26e-05 | 5.25e+06
5 | B5 | 0.0913 | 0.000543 | 5.95e+06
6 | B6 | 0.0411 | 0.00023 | 5.58e+06
7 | B7 | 0.0131 | 6.76e-05 | 5.15e+06
8 | B8 | 0.0468 | 0.00025 | 5.34e+06
9 | B9 | 0.00855 | 5.06e-05 | 5.92e+06
10 | B10 | 0.021 | 0.000103 | 4.93e+06
11 | B11 | 0.0396 | 0.000208 | 5.26e+06
12 | B12 | 0.0422 | 0.000219 | 5.19e+06

Biological target: T1, hu-M-IL1RAP construct, positions …
Experiment: SPR, Fab analyte, 37 C
Method: as §1

Row | Binder | Kd [nM] | koff [s⁻¹] | kon [M⁻¹ s⁻¹]
13 | B8 | 0.188 | 0.000708 | 3.76e+06
14 | B9 | 0.0298 | 0.000153 | 5.12e+06
15 | B11 | 0.125 | 0.000602 | 4.82e+06
16 | B12 | 0.112 | 0.000729 | 6.5e+06

Biological target: T2, human IL1RAP (hu-IL1RAP) on human cells
Experiment: cell-based or functional assay

Row | Binder | HEK-Blue, IL-1β, % inhibition at 100 nM (Fab) [%] | HEK-Blue, IL-1β, IC50 (Fab) [nM] | HEK-Blue, IL-33, % inhibition at 100 nM (Fab) [%] | HEK-Blue, IL-33, IC50 (Fab) [nM] | HEK-Blue, IL-36α, % inhibition at 100 nM (Fab) [%] | HEK-Blue, IL-36α, IC50 (Fab) [nM]
17 | B9 | 100 | 0.66 | 98 | 3.26 | 100 | 0.706

Biological target: T1, hu-M-IL1RAP construct, positions …
Experiment: SPR, Fab against parent Fab

Row | Binder | Fold Improvement in KD @ 25° C. [fold] | Fold Improvement in KD @ 37° C. [fold]
18 | B1 | 2.7 | –
19 | B2 | 2.81 | –
20 | B3 | 8 | –
21 | B4 | 28.3 | –
22 | B5 | 3.69 | –
23 | B6 | 8.2 | –
24 | B7 | 25.7 | –
25 | B8 | 7.2 | 1.43
26 | B9 | 39.4 | 8.99
27 | B10 | 16.1 | –
28 | B11 | 8.51 | 2.14
29 | B12 | 7.99 | 2.39

Biological target: T1, hu-M-IL1RAP construct, positions …
Experiment: phage display selection of affinity maturation libraries + NGS; enrichment of the mutation A51D (VL)

Row | Binder | Enrichment ratio (at the highest selection stringency) [ratio]
30 | B10 | 2.84

Biological target: T1, hu-M-IL1RAP construct, positions …
Experiment: phage display selection of affinity maturation libraries + NGS; enrichment of the mutation A51L (VL)
Method: (§2) For the first panning round, plates and phage libraries were blocked in PBS buffer containing 0.05% TWEEN® 20 and 1% BSA for either 1 hour (plates) or 30 minutes (phage libraries). Plates were washed in Wash Buffer (PBS buffer containing 0.05% TWEEN® 20) and incubated with blocked phage libraries for 2 hours with shaking. Non-specifically bound phage was removed by washing vigorously with Wash Buffer. […] Non-specific interactions were inhibited by adding 1/10th v/v 1% BSA.
(§3) For panning rounds three through five, phage libraries were incubated with blocking buffer (PBS buffer with 1% BSA in round 3 and SUPERBLOCK™ PBS buffer (Pierce) and 0.05% TWEEN® 20 in rounds 4 and 5) for 30 minutes and then incubated with decreasing concentrations of biotinylated hu-M-IL1RAP for 1 hour. Hu-M-IL1RAP-bound phage were captured on blocked neutravidin-coated plates, washed extensively with Wash Buffer, and eluted and neutralized in the same manner as in rounds 1 and 2. In the final selection round, 1000× non-biotinylated hu-M-IL1RAP was added as a competitor to increase the selection stringency.
(§4) To extract sequences from affinity maturation libraries using NGS, phagemid double stranded DNA was isolated from E. coli XL-1 cells carrying phagemids from the initial phage library (unsorted libraries) and from the second and third rounds of solution selection (sorted libraries). […]

Row | Binder | Enrichment ratio (at the highest selection stringency) [ratio]
31 | B7 | 2.9

Biological target: T1, hu-M-IL1RAP construct, positions …
Experiment: phage display selection of affinity maturation libraries + NGS; enrichment of the mutation A51R (VL)

Row | Binder | Enrichment ratio (at the highest selection stringency) [ratio]
32 | B4 | 2.89

Biological target: T1, hu-M-IL1RAP construct, positions …
Experiment: phage display selection of affinity maturation libraries + NGS; enrichment of the mutation A51Y (VL)
Method: as §2, §3, §4

Row | Binder | Enrichment ratio (at the highest selection stringency) [ratio]
33 | B9 | 2.95

Biological target: T1, hu-M-IL1RAP construct, positions …
Experiment: phage display selection of affinity maturation libraries + NGS; enrichment of the mutation F29Q (VH)
Method: as §2, §3, §4

Row | Binder | Enrichment ratio (at the highest selection stringency) [ratio]
34 | B3 | 3.02

Biological target: T1, hu-M-IL1RAP construct, positions …
Experiment: phage display selection of affinity maturation libraries + NGS; enrichment of the mutation R96A (VH)
Method: as §2, §3, §4

Row | Binder | Enrichment ratio (at the highest selection stringency) [ratio]
35 | B1 | 4.55

Biological target: T1, hu-M-IL1RAP construct, positions …
Experiment: phage display selection of affinity maturation libraries + NGS; enrichment of the mutation R96D (VH)
Method: as §2, §3, §4

Row | Binder | Enrichment ratio (at the highest selection stringency) [ratio]
36 | B12 | 4.06

Biological target: T1, hu-M-IL1RAP construct, positions …
Experiment: phage display selection of affinity maturation libraries + NGS; enrichment of the mutation R96Q (VH)
Method: as §2, §3, §4

Row | Binder | Enrichment ratio (at the highest selection stringency) [ratio]
37 | B8 | 3.8

Biological target: T1, hu-M-IL1RAP construct, positions …
Experiment: phage display selection of affinity maturation libraries + NGS; enrichment of the mutation T94I (VL)
Method: as §2, §3, §4

Row | Binder | Enrichment ratio (at the highest selection stringency) [ratio]
38 | B5 | 1.74

Biological target: T1, hu-M-IL1RAP construct, positions …
Experiment: phage display selection of affinity maturation libraries + NGS; enrichment of the mutation T94V (VL)
Method: as §2, §3, §4

Row | Binder | Enrichment ratio (at the highest selection stringency) [ratio]
39 | B2 | 0.987

Biological target: T1, hu-M-IL1RAP construct, positions …
Experiment: phage display selection of affinity maturation libraries + NGS; enrichment of the mutation V51S (VH)
Method: as §2, §3, §4

Row | Binder | Enrichment ratio (at the highest selection stringency) [ratio]
40 | B11 | 3.42

Biological target: T1, hu-M-IL1RAP construct, positions …
Experiment: phage display selection of affinity maturation libraries + NGS; enrichment of the mutation W92I (VL)
Method: as §2, §3, §4

Row | Binder | Enrichment ratio (at the highest selection stringency) [ratio]
41 | B6 | 3.36
